One block for each molecule: values may come before it.
Key:
OsASTOL1 = target: T1, OsASTOL1 (Oryza sativa, UniProt Q9XEA6); test: microscale thermophoresis, RED-tris-NTA labelled His-tagged protein; assay type: binding
T1 construct: gene RCS1; mature form, N-terminal 87 residues (first 261 bp) deleted; C-terminal His tag (pET-29a NdeI/XhoI); E. coli BL21(DE3); Ni-NTA; dimer by SEC

AtOAS-TL A = target: T2, AtOAS-TL A (Arabidopsis thaliana, UniProt P47998); test: as above; assay type: binding
T2 construct: gene OASA1; full-length ORF, C-terminal His tag (pET-29a NdeI/XhoI); E. coli BL21(DE3); Ni-NTA

[1] = target: mature OsASTOL1 protein (untagged) (rice (Oryza sativa cv. Kasalath)) (UniProt Q9XEA6); test: SEC; HiLoad 16/60 Superdex 200 prep grade, 20 mM Tris-HCl, 150 mM NaCl, pH 7.5, 1 ml/min; 1 mg protein in 1 ml injected; molecular weight from a calibration curve
[2] = target: mature OsASTOL1^S189N protein (untagged) (rice (Oryza sativa cv. Kasalath)) (UniProt Q9XEA6); test: as above
AtOAS-TL A-His = target: T3, AtOAS-TL A-His (Arabidopsis thaliana, UniProt P47998 1-322, labeled with RED-tris-NTA 2nd Generation Dye); test: MST; His-tagged OAS-TL labeled with RED-tris-NTA 2nd Generation Dye (100 µM as printed) with a serial dilution of the AtSAT5C10 peptide; PBS pH 7.6, 0.05% Tween 20; Monolith NT.115; conditions: both partners purified
T3 construct: Arabidopsis thaliana cytosolic O-acetylserine(thiol)lyase A; ORF without the stop codon; Cloned into the NdeI/XhoI sites of pET-29a; also called His-tagged AtOAS-TL A; source: E. coli BL21 (DE3), purified (Ni-NTA); not shown: His, C-terminal, kept

AtOAS-TL A^S102N-His = target: T4, AtOAS-TL A^S102N-His (Arabidopsis thaliana, UniProt P47998 1-322, S102N, labeled with RED-tris-NTA 2nd Generation Dye); test: as above; conditions: both partners purified
T4 construct: Arabidopsis thaliana cytosolic O-acetylserine(thiol)lyase A, site-directed mutant; ORF without the stop codon; Cloned into the NdeI/XhoI sites of pET-29a; also called His-tagged AtOAS-TL A^S102N; source: E. coli BL21 (DE3), purified (Ni-NTA); not shown: His, C-terminal, kept
T4 sequence (P47998 whole entry S102N): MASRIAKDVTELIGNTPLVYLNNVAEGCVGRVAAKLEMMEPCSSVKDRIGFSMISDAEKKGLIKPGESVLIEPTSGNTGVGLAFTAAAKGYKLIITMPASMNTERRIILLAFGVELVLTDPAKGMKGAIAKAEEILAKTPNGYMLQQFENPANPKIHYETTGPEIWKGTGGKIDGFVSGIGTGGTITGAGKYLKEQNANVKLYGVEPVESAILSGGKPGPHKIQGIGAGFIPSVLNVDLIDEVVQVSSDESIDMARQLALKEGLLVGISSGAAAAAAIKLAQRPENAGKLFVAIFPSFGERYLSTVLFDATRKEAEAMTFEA

T1 sequence (Q9XEA6 whole entry): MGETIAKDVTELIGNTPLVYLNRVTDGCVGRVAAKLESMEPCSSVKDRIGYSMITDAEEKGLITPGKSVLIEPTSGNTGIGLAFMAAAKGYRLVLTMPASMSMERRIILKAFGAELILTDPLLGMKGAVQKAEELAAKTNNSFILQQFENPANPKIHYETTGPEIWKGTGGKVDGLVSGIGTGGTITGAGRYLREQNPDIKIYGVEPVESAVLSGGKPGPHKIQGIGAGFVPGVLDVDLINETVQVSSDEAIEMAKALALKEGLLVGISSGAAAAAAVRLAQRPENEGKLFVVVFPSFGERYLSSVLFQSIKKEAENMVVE
T3 sequence (P47998 whole entry): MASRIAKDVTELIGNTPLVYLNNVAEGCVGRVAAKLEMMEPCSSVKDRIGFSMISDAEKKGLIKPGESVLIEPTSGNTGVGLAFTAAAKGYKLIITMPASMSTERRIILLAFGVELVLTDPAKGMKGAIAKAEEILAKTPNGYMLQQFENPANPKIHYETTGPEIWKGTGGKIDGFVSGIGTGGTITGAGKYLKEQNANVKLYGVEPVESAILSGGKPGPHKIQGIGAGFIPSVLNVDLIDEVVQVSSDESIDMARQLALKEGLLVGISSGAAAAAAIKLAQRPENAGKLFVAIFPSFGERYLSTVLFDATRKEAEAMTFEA
T2 sequence (P47998 whole entry): as above

- Kd (OsASTOL1): 1.47 ± 2.42 nM
- Kd (AtOAS-TL A): 13.1 ± 4.83 nM
Molecule: CC(=O)OC[C@H](N)C(=O)O [OAS]

- stoichiometry N [1]: 2
Molecule: mature OsASTOL1 protein (untagged) (from UniProt Q9XEA6 88-321) (enzyme)

- stoichiometry N [2]: 2
Molecule: mature OsASTOL1^S189N protein (untagged) (from UniProt Q9XEA6 88-321) (enzyme)

- binding result (AtOAS-TL A-His): binds
- binding result (AtOAS-TL A^S102N-His): binds
B1: AtSAT5C10 peptide (peptide)
peptide: FISEWSDYII
notes: Ten C-terminal residues of Arabidopsis thaliana serine acetyltransferase 5 (AtSAT5), AT5G56760; also called C-terminal fragment of SAT5; AtSAT5C10 fragment; source: synthetic peptide (GenScript Biotech, Nanjing)
